From the MegaScale stability set (Tsuboyama et al. 2023)

B1: HHH_rd1_0493 (parent)
chain: RDEDEKEKIKEALKRGNEDKAKEIAKRANVSPEEYERLRKEAE

Variants of: B1
Assay: folding stability dG (cDNA display proteolysis); higher = more stable
Conditions: PBS, room temperature
With RDEDEKEKIKEALKRGNEEKAKEIAKRANVSPEEYERLRKEAE [D19E] the “folding stability dG” value was 3.28 kcal/mol. In the case of RDEDEKEKIKEALKRGNELKAKEIAKRANVSPEEYERLRKEAE [D19L], the “folding stability dG” value is reported as 2.98 kcal/mol. With RDEDEKEKIKEALKRGNEQKAKEIAKRANVSPEEYERLRKEAE [D19Q] the “folding stability dG” value was 3.15 kcal/mol. With RDEDEKEKIKEALKRGNEVKAKEIAKRANVSPEEYERLRKEAE [D19V] the “folding stability dG” value was 2.99 kcal/mol. In the case of RDEDEKEKIKEALKRGNERKAKEIAKRANVSPEEYERLRKEAE [D19R], the “folding stability dG” value is reported as 2.97 kcal/mol. In the case of RDEDEKEKIKEALKRGNEMKAKEIAKRANVSPEEYERLRKEAE [D19M], the “folding stability dG” value is reported as 3.04 kcal/mol. For RDEDEKEKIKEALKRGNEYKAKEIAKRANVSPEEYERLRKEAE [D19Y], the “folding stability dG” value was 2.5 kcal/mol. With RDEDEKEKIKEALKRGNESKAKEIAKRANVSPEEYERLRKEAE [D19S] the “folding stability dG” value was 2.93 kcal/mol. For RDEDEKEKIKEALKRGNETKAKEIAKRANVSPEEYERLRKEAE [D19T], the “folding stability dG” value was 3.05 kcal/mol. In the case of RDEDEKEKIKEALKRGNEAKAKEIAKRANVSPEEYERLRKEAE [D19A], the “folding stability dG” value is reported as 3.31 kcal/mol. For RDEDEKEKIKEALKRGNEKKAKEIAKRANVSPEEYERLRKEAE [D19K], the “folding stability dG” value was 3.07 kcal/mol. For RDEDEKEKIKEALKRGNEFKAKEIAKRANVSPEEYERLRKEAE [D19F], the “folding stability dG” value was 2.6 kcal/mol. For RDEDEKEKIKEALKRGNEIKAKEIAKRANVSPEEYERLRKEAE [D19I], the “folding stability dG” value was 2.95 kcal/mol. For RDEDEKEKIKEALKRGNEGKAKEIAKRANVSPEEYERLRKEAE [D19G], the “folding stability dG” value was 2.76 kcal/mol. For RDEDEKEKIKEALKRGNEPKAKEIAKRANVSPEEYERLRKEAE [D19P], the “folding stability dG” value was 2.64 kcal/mol. With RDEDEKEKIKEALKRGNEHKAKEIAKRANVSPEEYERLRKEAE [D19H] the “folding stability dG” value was 2.85 kcal/mol. For RDEDEKEKIKEALKRGNEWKAKEIAKRANVSPEEYERLRKEAE [D19W], the “folding stability dG” value was 2.72 kcal/mol. With RDEDEKEKIKEALKRGNENKAKEIAKRANVSPEEYERLRKEAE [D19N] the “folding stability dG” value was 2.86 kcal/mol. In the case of RDEDEKEKIKEALKRGNEDKAGEIAKRANVSPEEYERLRKEAE [K22G], the “folding stability dG” value is reported as 1.64 kcal/mol. With RDEDEKEKIKEALKRGNEDKADEIAKRANVSPEEYERLRKEAE [K22D] the “folding stability dG” value was 1.73 kcal/mol. For RDEDEKEKIKEALKRGNEDKAFEIAKRANVSPEEYERLRKEAE [K22F], the “folding stability dG” value was 2.31 kcal/mol. For RDEDEKEKIKEALKRGNEDKAQEIAKRANVSPEEYERLRKEAE [K22Q], the “folding stability dG” value was 2.86 kcal/mol. With RDEDEKEKIKEALKRGNEDKAEEIAKRANVSPEEYERLRKEAE [K22E] the “folding stability dG” value was 2.26 kcal/mol. With RDEDEKEKIKEALKRGNEDKAHEIAKRANVSPEEYERLRKEAE [K22H] the “folding stability dG” value was 2.46 kcal/mol. In the case of RDEDEKEKIKEALKRGNEDKAPEIAKRANVSPEEYERLRKEAE [K22P], the “folding stability dG” value is reported as 0.613 kcal/mol. For RDEDEKEKIKEALKRGNEDKAIEIAKRANVSPEEYERLRKEAE [K22I], the “folding stability dG” value was 2.8 kcal/mol. In the case of RDEDEKEKIKEALKRGNEDKALEIAKRANVSPEEYERLRKEAE [K22L], the “folding stability dG” value is reported as 3.1 kcal/mol. For RDEDEKEKIKEALKRGNEDKAMEIAKRANVSPEEYERLRKEAE [K22M], the “folding stability dG” value was 3.03 kcal/mol. In the case of RDEDEKEKIKEALKRGNEDKACEIAKRANVSPEEYERLRKEAE [K22C], the “folding stability dG” value is reported as 1.79 kcal/mol. In the case of RDEDEKEKIKEALKRGNEDKAAEIAKRANVSPEEYERLRKEAE [K22A], the “folding stability dG” value is reported as 2.61 kcal/mol. With RDEDEKEKIKEALKRGNEDKANEIAKRANVSPEEYERLRKEAE [K22N] the “folding stability dG” value was 2.11 kcal/mol. For RDEDEKEKIKEALKRWNEDKAKEIAKRANVSPEEYERLRKEAE [G16W], the “folding stability dG” value was 0.968 kcal/mol. With RDEDEKEKIKEALKRSNEDKAKEIAKRANVSPEEYERLRKEAE [G16S] the “folding stability dG” value was 1.29 kcal/mol. In the case of RDEDEKEKIKEALKRKNEDKAKEIAKRANVSPEEYERLRKEAE [G16K], the “folding stability dG” value is reported as 1.73 kcal/mol. With RDEDEKEKIKEALKRNNEDKAKEIAKRANVSPEEYERLRKEAE [G16N] the “folding stability dG” value was 1.91 kcal/mol. For RDEDEKEKIKEALKRYNEDKAKEIAKRANVSPEEYERLRKEAE [G16Y], the “folding stability dG” value was 0.998 kcal/mol. In the case of RDEDEKEKIKEALKRRNEDKAKEIAKRANVSPEEYERLRKEAE [G16R], the “folding stability dG” value is reported as 1.97 kcal/mol. For RDEDEKEKIKEALKRMNEDKAKEIAKRANVSPEEYERLRKEAE [G16M], the “folding stability dG” value was 1.46 kcal/mol. In the case of RDEDEKEKIKEALKRLNEDKAKEIAKRANVSPEEYERLRKEAE [G16L], the “folding stability dG” value is reported as 1.39 kcal/mol. For RDEDEKEKIKEALKRTNEDKAKEIAKRANVSPEEYERLRKEAE [G16T], the “folding stability dG” value was 0.598 kcal/mol. For RDEDEKEKIKEALKRQNEDKAKEIAKRANVSPEEYERLRKEAE [G16Q], the “folding stability dG” value was 1.56 kcal/mol. With RDEDEKEKIKEALKRPNEDKAKEIAKRANVSPEEYERLRKEAE [G16P] the “folding stability dG” value was 0.767 kcal/mol. With RDEDEKEKIKEALKRVNEDKAKEIAKRANVSPEEYERLRKEAE [G16V] the “folding stability dG” value was 0.445 kcal/mol. In the case of RDEDEKEKIKEALKRGNEDKTKEIAKRANVSPEEYERLRKEAE [A21T], the “folding stability dG” value is reported as 0.424 kcal/mol. With RDEDEKEKIKEALKRGNEDKKKEIAKRANVSPEEYERLRKEAE [A21K] the “folding stability dG” value was 0.184 kcal/mol. In the case of RDEDEKEKIKEALKRGNEDKSKEIAKRANVSPEEYERLRKEAE [A21S], the “folding stability dG” value is reported as 1.11 kcal/mol. With RDEDEKEKIKEALKRGNEDKQKEIAKRANVSPEEYERLRKEAE [A21Q] the “folding stability dG” value was 0.364 kcal/mol. For RDEDEKEKIKEALKRGNEDKEKEIAKRANVSPEEYERLRKEAE [A21E], the “folding stability dG” value was 0.568 kcal/mol. In the case of RDEDEKEKIKEALKRGNEDKYKEIAKRANVSPEEYERLRKEAE [A21Y], the “folding stability dG” value is reported as 0.355 kcal/mol. For RDEDEKEKIKEALKRGNEDKVKEIAKRANVSPEEYERLRKEAE [A21V], the “folding stability dG” value was 0.589 kcal/mol. For RDEDEKEKIKEALKRGNEDKCKEIAKRANVSPEEYERLRKEAE [A21C], the “folding stability dG” value was 1.29 kcal/mol. In the case of RDEDEKEKIKEALKRGNEDKIKEIAKRANVSPEEYERLRKEAE [A21I], the “folding stability dG” value is reported as 0.511 kcal/mol. In the case of RDEDEKEKIKEALKRGNEDKGKEIAKRANVSPEEYERLRKEAE [A21G], the “folding stability dG” value is reported as 1.13 kcal/mol. For RDEDEKEKIKEALKRGNEDKLKEIAKRANVSPEEYERLRKEAE [A21L], the “folding stability dG” value was 0.541 kcal/mol. For RDEDEKEKIKEALKRGNEDKFKEIAKRANVSPEEYERLRKEAE [A21F], the “folding stability dG” value was 0.6 kcal/mol. For RDEDEKEKIKEALKRGNEDKWKEIAKRANVSPEEYERLRKEAE [A21W], the “folding stability dG” value was 0.514 kcal/mol. In the case of RDEDEKEKIKEALKRGNEDKRKEIAKRANVSPEEYERLRKEAE [A21R], the “folding stability dG” value is reported as 0.336 kcal/mol. In the case of RDEDEKEKIKEALKRGNEDKMKEIAKRANVSPEEYERLRKEAE [A21M], the “folding stability dG” value is reported as 0.506 kcal/mol. For RDEDEKEKIKEALKRGNEDKHKEIAKRANVSPEEYERLRKEAE [A21H], the “folding stability dG” value was 0.313 kcal/mol.
